{"source": "patent US20190010233A1", "about": "(JIANGSU HYAMAB PHARMACEUTICAL, published 2019)", "binders": {"B1": {"name": "fully human anti-PD-L1 antibody 105C5D7 (antibody, V domains shown)", "VH": "EVQLVESGGGLVQPGGSLRLSCAASGFTFSSYWMSWVRQAPGKGLEWVANIKQDGNEKYYVDSVKGRFTISRDNAKNSLYLQMNSLRAEDTAVYYCARNIKWGDAFDIWGQGTMVTVSS", "VL": "DIQMTQSPSSLSASVGDRVTITCRASQSISSYLNWYQQKPGKAPKLLIYAASSLQSGVPSRFSGSGSGTDFTLTISSLQPEDFAIYSCQQSYSIPLTFGGGTKVEIKR", "notes": "also called 105C5D7 (fully human)"}}, "key": {"[1]": {"target": "T1, full length human PD-L1 on cells (human, UniProt Q9NZQ7 19-290)", "T1 sequence (Q9NZQ7 19-290 limits assumed)": "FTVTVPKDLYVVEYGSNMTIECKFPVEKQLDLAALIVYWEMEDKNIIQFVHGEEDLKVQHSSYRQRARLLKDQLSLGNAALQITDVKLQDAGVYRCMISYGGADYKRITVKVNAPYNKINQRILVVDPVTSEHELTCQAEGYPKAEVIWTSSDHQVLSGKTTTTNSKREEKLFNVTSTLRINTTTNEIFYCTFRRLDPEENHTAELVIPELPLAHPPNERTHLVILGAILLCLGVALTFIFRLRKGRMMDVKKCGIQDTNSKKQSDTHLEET", "assay": "cell-based or functional assay"}, "[2]": {"target": "T1, full length human PD-L1 on cells", "assay": "cell-based or functional assay", "remark": "listed apart in the source"}, "[3]": {"target": "T1, full length human PD-L1 on cells", "assay": "FACS CHOK1-hPD-L1, 3 nM mAb"}, "[4]": {"target": "T1, full length human PD-L1 on cells", "assay": "FACS CHOK1-hPD-L1, 30 nM mAb"}, "[5]": {"target": "T2, full length cyno PD-L1 on cells (cyno, UniProt G7PSE7 19-290)", "T2 construct": "also called CHO-K1-cPD-L1", "T2 sequence (G7PSE7 entry or part of it limits assumed)": "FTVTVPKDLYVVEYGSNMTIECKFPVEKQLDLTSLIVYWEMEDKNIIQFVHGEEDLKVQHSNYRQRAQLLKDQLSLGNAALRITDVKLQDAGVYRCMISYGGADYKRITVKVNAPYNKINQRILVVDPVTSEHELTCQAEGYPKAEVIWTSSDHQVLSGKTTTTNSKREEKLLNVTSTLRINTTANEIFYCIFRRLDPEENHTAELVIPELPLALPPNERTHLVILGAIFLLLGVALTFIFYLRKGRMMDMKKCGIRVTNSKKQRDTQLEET", "assay": "FACS CHO-K1-cPD-L1, 3 nM mAb"}, "[6]": {"target": "T1, full length human PD-L1 on cells", "assay": "FACS CHOK1-hPD-L1, 0.3 nM mAb"}, "[7]": {"target": "T1, full length human PD-L1 on cells", "assay": "FACS CHOK1-hPD-L1, 300 nM mAb"}, "[8]": {"target": "T2, full length cyno PD-L1 on cells", "assay": "FACS CHO-K1-cPD-L1, 30 nM mAb"}, "[9]": {"target": "T1, full length human PD-L1 on cells", "assay": "FACS CHOK1-hPD-L1, 0.03 nM mAb"}, "[10]": {"target": "T2, full length cyno PD-L1 on cells", "assay": "FACS CHO-K1-cPD-L1, 0.3 nM mAb"}, "[11]": {"target": "T2, full length cyno PD-L1 on cells", "assay": "FACS CHO-K1-cPD-L1, 300 nM mAb"}, "[12]": {"target": "T1, full length human PD-L1 on cells", "assay": "FACS CHOK1-hPD-L1, 0.003 nM mAb"}, "[13]": {"target": "T2, full length cyno PD-L1 on cells", "assay": "FACS CHO-K1-cPD-L1, 0.03 nM mAb"}, "[14]": {"target": "T1, full length human PD-L1 on cells", "assay": "FACS CHOK1-hPD-L1, 0.0003 nM mAb"}, "[15]": {"target": "T2, full length cyno PD-L1 on cells", "assay": "FACS CHO-K1-cPD-L1, 0.003 nM mAb"}, "[16]": {"target": "T2, full length cyno PD-L1 on cells", "assay": "FACS CHO-K1-cPD-L1, 0.0003 nM mAb"}, "[17]": {"target": "T3, human PD-L1^ECD-hFc protein (human, UniProt Q9NZQ7 19-239, biotinylated in the PD-1 binding ELISA (Table 3) and in the Octet assay (Table 12))", "T3 construct": "The plain and the biotinylated protein are kept as one molecule; also called PD-L1-hFc; Immunogen A; not shown: human IgG Fc fragment (hFc)", "T3 sequence (Q9NZQ7 19-239)": "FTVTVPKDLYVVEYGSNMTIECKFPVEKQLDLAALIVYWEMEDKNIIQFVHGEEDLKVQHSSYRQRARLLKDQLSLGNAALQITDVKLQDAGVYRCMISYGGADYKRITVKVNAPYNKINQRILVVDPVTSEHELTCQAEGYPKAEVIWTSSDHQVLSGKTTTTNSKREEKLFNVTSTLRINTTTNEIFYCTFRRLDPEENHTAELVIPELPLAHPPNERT", "assay": "ELISA receptor-ligand blocking assay: PD-L1 protein coated, fully human antibody titrated, blocked ligand PD-1, inhibition rate (%)"}, "[18]": {"target": "T3, human PD-L1^ECD-hFc protein", "assay": "ELISA receptor-ligand blocking assay: PD-L1 protein coated, fully human antibody titrated, blocked ligand B7.1, inhibition rate (%)"}}, "data": [{"binder": "B1", "values": [{"measurement": "IL-2 (pg/mL), MLR, 0.001 µg/mL mAb", "setting": "[1]", "result": 43, "unit": "pg/mL"}, {"measurement": "IL-2 (pg/mL), MLR, 0.01 µg/mL mAb", "setting": "[1]", "result": 92.2, "unit": "pg/mL"}, {"measurement": "IL-2 (pg/mL), MLR, 0.1 µg/mL mAb", "setting": "[1]", "result": 118, "unit": "pg/mL"}, {"measurement": "IL-2 (pg/mL), MLR, 1 µg/mL mAb", "setting": "[1]", "result": 148, "unit": "pg/mL"}, {"measurement": "IFN-γ (pg/mL), MLR, 0.001 µg/mL mAb", "setting": "[2]", "result": 1880, "unit": "pg/mL"}, {"measurement": "IFN-γ (pg/mL), MLR, 0.01 µg/mL mAb", "setting": "[2]", "result": 2580, "unit": "pg/mL"}, {"measurement": "IFN-γ (pg/mL), MLR, 0.1 µg/mL mAb", "setting": "[2]", "result": 4930, "unit": "pg/mL"}, {"measurement": "IFN-γ (pg/mL), MLR, 1 µg/mL mAb", "setting": "[2]", "result": 4280, "unit": "pg/mL"}, {"measurement": "IFN-γ (pg/mL), MLR, 10 µg/mL mAb", "setting": "[2]", "result": 5260, "unit": "pg/mL"}, {"measurement": "Mean fluorescence intensity", "setting": "[3]", "result": 435}, {"measurement": "Mean fluorescence intensity", "setting": "[4]", "result": 380}, {"measurement": "Mean fluorescence intensity", "setting": "[5]", "result": 375}, {"measurement": "Mean fluorescence intensity", "setting": "[6]", "result": 116}, {"measurement": "Mean fluorescence intensity", "setting": "[7]", "result": 382}, {"measurement": "Mean fluorescence intensity", "setting": "[8]", "result": 335}, {"measurement": "Mean fluorescence intensity", "setting": "[9]", "result": 23.1}, {"measurement": "Mean fluorescence intensity", "setting": "[10]", "result": 107}, {"measurement": "Mean fluorescence intensity", "setting": "[11]", "result": 299}, {"measurement": "Mean fluorescence intensity", "setting": "[12]", "result": 7.3}, {"measurement": "Mean fluorescence intensity", "setting": "[13]", "result": 18.8}, {"measurement": "Mean fluorescence intensity", "setting": "[14]", "result": 6.61}, {"measurement": "Mean fluorescence intensity", "setting": "[15]", "result": 9.85}, {"measurement": "Mean fluorescence intensity", "setting": "[16]", "result": 5.31}, {"measurement": "IC50 (read off the curve)", "setting": "[17]", "result": "~2", "unit": "nM"}, {"measurement": "IC50 (read off the curve)", "setting": "[18]", "result": "~2", "unit": "nM"}]}]}
